Where a chain is given by its changes, count along the chain named.
B1: Ch2G11 (antibody, V domains shown)
VH: EVQLVESGGGLVKPGGSLILSCAASGFTFSGFAMSWVRQTPEKRLEWVATISSGGTYTYSPDSVMGRFTISRDNAKNTLYLQMSSLRSEDTAMYYCARRLRRNYYSMDYWGQGTSVTVSS
VL: DVVLTQAPLSLPVNIGDQASISCKSTKSLLNSDGFTYLDWYLQKPGQSPQLLIYLVSNRFSGVPDRFSGSGSGTDFTLKISRVEAEDLGIYFCFQSNYLPFTFGSGTKLEIKR
B2: Ch1A9 (antibody, V domains shown)
VH: EIQLQQTGPELVKPGASVKISCKASGYSFTDYIMLWVKQSHGKSLEWIGDIYPYYGSTSYNLKFKGKATLTVDKSSSTAYMQLNSLTSEDSAVYYCARQGGDGNYVLFDYWGQGTTLTVSS
VL: DIVMTQSQKFMSTSVGDRVSVTCKASQNVGTTVAWYQQKPGQSPKALIYSASYRYSGVPDRFTGSGSGTDFTLTISNVQSEDLAEYFCQQYNSYPFTFGSGTKLEIKR
B3: Hu1A9-1 (antibody, V domains shown)
VH: QVQLVQSGAEVKKPGASVKVSCKASGYSFTDYIMLWVRQAPGQRLEWIGDIYPYYGSTSYNLKFKGKATLTVDTSASTAYMELSSLRSEDTAVYYCARQGGDGNYVLFDYWGQGTLVTVSS
VL: DIQMTQSPSSLSASVGDRVTITCKASQNVGTTVAWYQQKPGKAPKALIYSASYRYSGVPSRFSGSGSGTDFTLTISSLQPEDFATYYCQQYNSYPFTFGQGTKLEIKR
B4: Hu1A9-2 (antibody, V domains shown)
VH: B3 VH
VL: B3 VL with A46V

Tests used:
[1] = biological target: Inactivated Rabies Virus Vaccine (Rabipur®, Chiron Behring GmbH & Co.) (rabies virus)
[2] = biological target: CVS-11 rabies virus (rabies virus) (UniProt O92284); assay: cell-based or functional assay
Chain of UniProt O92284 (O92284 20-524): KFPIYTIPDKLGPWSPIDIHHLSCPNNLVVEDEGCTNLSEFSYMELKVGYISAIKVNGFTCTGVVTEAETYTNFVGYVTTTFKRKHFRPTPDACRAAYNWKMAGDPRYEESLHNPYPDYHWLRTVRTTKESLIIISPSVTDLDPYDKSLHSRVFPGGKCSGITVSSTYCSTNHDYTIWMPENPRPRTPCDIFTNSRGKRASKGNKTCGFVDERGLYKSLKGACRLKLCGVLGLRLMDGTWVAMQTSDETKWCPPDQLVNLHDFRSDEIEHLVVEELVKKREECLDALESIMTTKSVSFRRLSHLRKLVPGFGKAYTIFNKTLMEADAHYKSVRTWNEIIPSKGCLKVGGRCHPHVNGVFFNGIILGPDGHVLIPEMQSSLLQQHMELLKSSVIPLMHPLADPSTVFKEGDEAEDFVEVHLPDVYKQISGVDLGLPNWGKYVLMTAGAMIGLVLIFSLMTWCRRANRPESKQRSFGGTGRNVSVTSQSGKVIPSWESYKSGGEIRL

[3] = biological target: Inactivated Rabies Virus Vaccine (Rabipur®, Chiron Behring GmbH & Co.) (rabies virus); assay: ELISA, plate coated with 1/500-diluted Rabipur, anti-human IgG Fcγ-HRP detection

Binder | IC50 [1] [µg/mL] | Neutralization potency (IU/mg), FAVN [2] [IU/mg] | Neutralization potency (IU/mg), RFFIT [2] [IU/mg] | EC50 [3] [µg/mL]
B1 | 0.11 | 8310 | 1260 | 
B2 |  | 533 | 1260 | 0.052
B3 |  |  |  | 0.025
B4 |  |  |  | 0.016

From US20150110781A1
